From patent US20210139569A1 (STRESSMARQ BIOSCIENCES, published 2021)

Tests used:
[1] = biological target: α-synuclein peptide AA 121-140, BSA conjugate (human, N-terminus conjugated to a C-6 spacer (Ahx), which is conjugated to an N-terminal cysteine; conjugated to BSA); experiment: ELISA on BSA-conjugated peptide (FIG. 10)
Protocol: (§1) ELISA conditions for epitope mapping: Nunc® MaxiSorp™ 98 well plates ELISA plates were coated with peptide conjugated to BSA at 0.1 μg/well in 100 μl/well CCB (pH 9.6) overnight at 4° C. The plates were then blocked with 3% skim milk powder in PBS for 3 hours at room temperature. 100 μL/well antibody (1 μg/mL) was added and incubated for 1 hour at 37° C. Secondary Antibody 1:10,000 Goat anti-mouse IgG/IgM (H+L)-HRP at 100 uL/well in PBS-Tween for 1 hour at room temperature. All washing steps performed for 30 mins with PBS-Tween. […] Development time: 15 minutes. Plates were read at 450 nm.

[2] = biological target: T1, α-synuclein peptide AA 41-70, BSA conjugate (human, N-terminus conjugated to a C-6 spacer (Ahx), which is conjugated to an N-terminal cysteine; conjugated to BSA); experiment: ELISA on BSA-conjugated peptide (FIG. 10)
T1 construct: also called 41-70aa
Protocol: as §1

[3] = biological target: T2, α-synuclein peptide AA 21-50, BSA conjugate (human, N-terminus conjugated to a C-6 spacer (Ahx), which is conjugated to an N-terminal cysteine; conjugated to BSA); experiment: ELISA on BSA-conjugated peptide (FIG. 10)
T2 construct: also called 21-50aa
Protocol: as §1

[4] = biological target: T3, α-synuclein peptide AA 1-30, BSA conjugate (human, N-terminus conjugated to a C-6 spacer (Ahx), which is conjugated to an N-terminal cysteine; conjugated to BSA); experiment: ELISA on BSA-conjugated peptide (FIG. 10)
T3 construct: also called 1-30aa
Protocol: as §1

[5] = biological target: α-synuclein peptide AA 81-110, BSA conjugate (human, N-terminus conjugated to a C-6 spacer (Ahx), which is conjugated to an N-terminal cysteine; conjugated to BSA); experiment: ELISA on BSA-conjugated peptide (FIG. 10)
Protocol: as §1

[6] = biological target: α-synuclein peptide AA 101-130, BSA conjugate (human, N-terminus conjugated to a C-6 spacer (Ahx), which is conjugated to an N-terminal cysteine; conjugated to BSA); experiment: binding to overlapping peptides (FIG. 10)
α-synuclein peptide AA 101-130, BSA conjugate (human, N-terminus conjugated to a C-6 spacer (Ahx), which is conjugated to an N-terminal cysteine; conjugated to BSA), sequence (peptide, as listed by the source): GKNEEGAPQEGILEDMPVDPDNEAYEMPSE
Protocol: as §1

α-synuclein peptide AA 81-110, BSA conjugate (human, N-terminus conjugated to a C-6 spacer (Ahx), which is conjugated to an N-terminal cysteine; conjugated to BSA), sequence (peptide, as listed by the source): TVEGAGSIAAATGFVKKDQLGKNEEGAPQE

- binding result [1]: no binding (tested: 1 µg/mL antibody)
- binding result [2]: no binding (tested: 1 µg/mL antibody)
- binding result [3]: no binding (tested: 1 µg/mL antibody)
- binding result [4]: no binding (tested: 1 µg/mL antibody)
- binding result [5]: no binding (tested: 1 µg/mL antibody)
- binding result [6]: binds
B1: monoclonal antibody 2F11 (hybridoma ATCC #PTA-124174) (antibody, V domains shown)
VH: EVQLQQSGAELVRSGASVKLSCTASGFNIKDYYMFWVKQRPEQGLEWIGWNDPENGDTEYAPKFQGKATMTADTSSNTAYLQLSSLTSEDTAVYYCNAWDGNYVMDYWGQGTSVTVSS
VL: QIVLTQSPAIMSASLGERVTMTCTASSSVSSSYLHWYQQKPGSSPKLWIYSTSNLASGVPPRFSGSGSGTSYSLTISSMEAEDAATYYCHQYHRSPPMYTFGGGTKLE
notes: Mouse monoclonal, IgG1 kappa; Used as hybridoma supernatant or Protein G purified; with gold-labelled detection for electron microscopy; also called clone 2F11; 2F11 antibody
